These results are taken from patent US20030148417A1.

Common to all, as to assay: cell-based or functional assay
In test [1] the target is bovine haemoglobin (bovine) (UniProt P01966).
For test [2], the target named is native purified aspartic endoproteinase from cacao beans (TcAP2, 30.5 kDa polypeptide), size exclusion pool #57-64 (Theobroma cacao).
Test [3] addresses recombinant TcAP2 protein (aspartic endoproteinase from Theobroma cacao, secreted by Yarrowia lipolytica clone pCY330-33) (Theobroma cacao).

Chain of bovine haemoglobin (bovine) (P01966 2-142, chain 1 of 2): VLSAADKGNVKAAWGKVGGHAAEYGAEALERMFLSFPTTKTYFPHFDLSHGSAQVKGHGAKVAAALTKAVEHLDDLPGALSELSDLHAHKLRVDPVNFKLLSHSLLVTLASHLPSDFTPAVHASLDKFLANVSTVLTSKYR
Chain of bovine haemoglobin (bovine) (P02070 whole entry, chain 2 of 2, further chain): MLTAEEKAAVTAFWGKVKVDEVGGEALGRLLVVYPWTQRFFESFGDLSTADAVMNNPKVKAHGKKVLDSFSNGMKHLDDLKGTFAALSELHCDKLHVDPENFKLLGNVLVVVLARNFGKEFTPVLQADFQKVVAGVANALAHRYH
Chain of native purified aspartic endoproteinase from cacao beans (TcAP2, 30.5 kDa polypeptide), size exclusion pool #57-64 (Theobroma cacao) (chain, as listed by the source limits assumed, form in doubt): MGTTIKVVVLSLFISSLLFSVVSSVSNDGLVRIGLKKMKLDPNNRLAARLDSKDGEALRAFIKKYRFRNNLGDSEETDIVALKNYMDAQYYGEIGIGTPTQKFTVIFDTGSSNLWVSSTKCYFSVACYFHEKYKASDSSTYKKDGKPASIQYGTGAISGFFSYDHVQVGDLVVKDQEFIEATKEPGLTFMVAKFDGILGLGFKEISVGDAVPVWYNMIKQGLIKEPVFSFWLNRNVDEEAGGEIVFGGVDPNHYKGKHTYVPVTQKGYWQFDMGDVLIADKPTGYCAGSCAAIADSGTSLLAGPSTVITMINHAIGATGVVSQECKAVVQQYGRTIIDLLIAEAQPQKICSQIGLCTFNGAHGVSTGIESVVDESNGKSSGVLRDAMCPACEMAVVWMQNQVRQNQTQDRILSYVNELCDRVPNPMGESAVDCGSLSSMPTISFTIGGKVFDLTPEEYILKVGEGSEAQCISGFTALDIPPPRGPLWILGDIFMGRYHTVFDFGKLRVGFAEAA

Consider “recombinant TcAP2 protein (aspartic endoproteinase from Theobroma cacao, secreted by Yarrowia lipolytica clone pCY330-33) (enzyme)”, for which the hydrolysis of bovine haemoglobin, activity at pH 3 without inhibitor (taken as 100%) (pmoles L-leucine produced/min/mg protein) in test [1] came to 28.8.
Consider Pepstatin A (peptide), for which, in test [2], the Remaining Activity % (hydrolysis of bovine hemoglobin, 0.002 mM Pepstatin A) was determined as 0%. In addition, in test [3], the pepstatin insensitive activity (hydrolysis of bovine haemoglobin, 2 µM pepstatin), percent of uninhibited activity stood at 6.65%.
